Assay results reported in the RNAGym collection of RNA variant scans (doi:10.1093/molbev/msab373).

B1: Azoarcus group I ribozyme (parent)
chain: GUGCCUUGCGCCGGGAAACCACGCAAGGGAUGGUGUCAAAUUCGGCGAAACCUAAGCGCCCGCCCGGGCGUAUGGCAACGCCGAGCCAAGCUUCGGCGCCUGCGCCGAUGAAGGUGUAGAGACUAGACGGCACCCACCUAAGGCAAACGCUAUGGUGAAGGCAUAGUCCAGGGAGUGGCGAAAGUCACACAAACCGG

Variants of: B1
Experiment: reverse-splicing fitness (ratio to wild type); higher = more active; in vitro selection; Mg2+ level not given
In short: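 An in vitro group I ribozyme library with randomized positions was T7-transcribed and gel-purified. In triplicate, 10 pmol RNA in EPPS pH 7.5 was reacted with 50 pmoles of a 30-nt RNA substrate for 1 h at 37 °C across several added MgCl2 levels (1–48 mM), then stopped with EDTA. Products were reverse transcribed from a substrate-complementary primer, PCR-amplified and sequenced (HiSeq 4000). Fitness is a variant's read proportion after selection over that before, normalised to wild type.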

| Variant | reverse-splicing fitness |
| --- | --- |
| A111G A145C C169A U176A | 0.0126 |
| A111G A145C C169A U176G | 0.00444 |
| A111G A120U C150G U176C | 0.0248 |
| A111G A120U C150G U176G | 0.00318 |
| A111G A120U C150G U176A | 0.0102 |
| A111G A120U A145U C150G C169A U176G | 0.0022 |
| A111G A120U A145U C150G C169A U176C | 0.00355 |
| A111G A120U A145U C150G C169A U176A | 0.00281 |
| A111G A120U C169A | 0.00619 |
| A111G A120U C169U | 0.144 |
| A111G A120U C169G | 0.103 |
| A111G A120U A145C C150U C169G U176C | 0.0028 |
| A111G A120U A145C C150U C169G U176A | 0.00436 |
| A111G A120U A145C C150U C169G U176G | 0.00177 |
| A111G A120U C169A U176A | 0.0033 |
| A111G A120U C169A U176G | 0.00161 |
| A111G A120U C169A U176C | 0.00321 |
| A111G A120U A145G C169G | 0.087 |
| A111G A120U A145G C169A | 0.00517 |
| A111G A120U A145G C169U | 0.126 |
| A111G A120U A145G C150G C169A U176C | 0.00599 |

| Variant | reverse-splicing fitness |
| --- | --- |
| A111G A120U A145G C150G C169A U176A | 0.00856 |
| A111G A120U A145G C150G C169A U176G | 0.00395 |
| A111G A120U A145U C150A C169A U176C | 0.00238 |
| A111G A120U A145U C150A C169A U176A | 0.00244 |
| A111G A120U A145U C150A C169A U176G | 0.00207 |
| A111G A120U A145G C150G C169A | 0.00794 |
| A111G A120U A145G C150G C169U | 0.0149 |
| A111G A120U A145G C150G C169G | 0.0123 |
| A111G A120U A145U C150G U176A | 0.0157 |
| A111G A120U A145U C150G U176G | 0.00462 |
| A111G A120U A145U C150G U176C | 0.0298 |
| A111G A145C C150A C169G U176A | 0.02 |
| A111G A145C C150A C169G U176C | 0.0114 |
| A111G A145C C150A C169G U176G | 0.00534 |
| A111G A120U A145G C150A C169U U176C | 0.00673 |
| A111G A120U A145G C150A C169U U176A | 0.00579 |
| A111G A120U A145G C150A C169U U176G | 0.00242 |
| A111G A145C C150A C169A | 0.00859 |
| A111G A145C C150A C169G | 0.0111 |
| A111G A145C C150A C169U | 0.0168 |
| A111G A145G C150G U176A | 0.111 |

| Variant | reverse-splicing fitness |
| --- | --- |
| A111G A145G C150G U176G | 0.0237 |
| A111G A145G C150G U176C | 0.184 |
| A111G A120U C150U C169G | 0.0472 |
| A111G A120U C150U C169U | 0.0666 |
| A111G A120U C150U C169A | 0.00587 |
| A111G A120U A145G C150G C169U U176C | 0.00697 |
| A111G A120U A145G C150G C169U U176G | 0.00319 |
| A111G A120U A145G C150G C169U U176A | 0.00497 |
| A111G A145C C150G C169G U176C | 0.00562 |
| A111G A145C C150G C169G U176A | 0.00824 |
| A111G A145C C150G C169G U176G | 0.00435 |
| A111G A120U A145C C169A U176C | 0.0018 |
| A111G A120U A145C C169A U176A | 0.00226 |
| A111G A120U A145C C169A U176G | 0.0014 |
| A111G A120U A145C C150U C169U U176C | 0.00282 |
| A111G A120U A145C C150U C169U U176A | 0.00601 |
| A111G A120U A145C C150U C169U U176G | 0.00212 |
| A111G A120U C169G U176C | 0.0228 |
| A111G A120U C169G U176A | 0.0109 |
| A111G A120U C169G U176G | 0.00198 |
| A111G A120U A145G C150U C169G U176G | 0.00263 |

| Variant | reverse-splicing fitness |
| --- | --- |
| A111G A120U A145G C150U C169G U176C | 0.0118 |
| A111G A120U A145G C150U C169G U176A | 0.0113 |
| A111G A145C C150G C169U U176A | 0.00841 |
| A111G A145C C150G C169U U176G | 0.00527 |
| A111G A145C C150G C169U U176C | 0.0138 |
| A111G A120U A145U C150G C169G U176C | 0.00268 |
| A111G A120U A145U C150G C169G U176G | 0.00203 |
| A111G A120U A145U C150G C169G U176A | 0.00284 |
| A111G A120U A145C C169U U176C | 0.0146 |
| A111G A120U A145C C169U U176A | 0.0207 |
| A111G A120U A145C C169U U176G | 0.00329 |
| A111G A120U A145G C150G U176C | 0.0188 |
| A111G A120U A145G C150G U176G | 0.00403 |
| A111G A120U A145G C150G U176A | 0.00779 |
| A111G A120U A145G U176G | 0.124 |
| A111G A120U A145G U176A | 0.344 |
| A111G A120U A145G U176C | 0.386 |
| A111G A120U A145U C150A C169A | 0.00222 |
| A111G A120U A145U C150A C169U | 0.0112 |
| A111G A120U A145U C150A C169G | 0.00763 |
| A111G A120U A145G C150G C169G U176C | 0.00396 |
